Results: the supplement of paper PMC9112550, “Optimization of the antimicrobial peptide Bac7 by deep mutational scanning” (BMC Biology, 2022)

Tested on: Escherichia coli TOP10
Assay: shrunken log2 fold change of peptide-encoding DNA abundance (4.5 h post-induction vs induction); higher = less antimicrobial activity (less host growth inhibition)
Conditions: time post-induction: 4.5 h; library: site-saturation at positions 5, 18, 19, 20
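Also: peptides expressed intracellularly from a pBAD plasmid library in pooled LB shake-flask culture, induced with 0.3% L-arabinose, DNA abundance read by NGS, three biological replicates, DESeq2 with apeglm shrinkage.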

Sequence	shrunken log2 fold change
RRIRQRPPRLPRPRPRPAWDPRP	1.54
RRIRGRPPRLPRPRPRPCYWPRP	0.553
RRIRDRPPRLPRPRPRPQPGPRP	0.237
RRIRSRPPRLPRPRPRPYLSPRP	-0.062
RRIRKRPPRLPRPRPRPMAQPRP	-0.0932
RRIRSRPPRLPRPRPRPSRPPRP	1.28
RRIRKRPPRLPRPRPRPDSIPRP	-0.0839
RRIRKRPPRLPRPRPRPPCWPRP	1.03
RRIRGRPPRLPRPRPRPFDGPRP	0.366
RRIRERPPRLPRPRPRPDMVPRP	0.0162
RRIRPRPPRLPRPRPRPHTNPRP	0.401
RRIRPRPPRLPRPRPRPLNHPRP	-0.363
RRIRWRPPRLPRPRPRPMWTPRP	0.171
RRIRWRPPRLPRPRPRPKQWPRP	0.155
RRIRFRPPRLPRPRPRPNKGPRP	-0.606
RRIRRRPPRLPRPRPRPSAGPRP	0.392
RRIRKRPPRLPRPRPRPGCFPRP	0.421
RRIRHRPPRLPRPRPRPQGEPRP	-0.171
RRIRARPPRLPRPRPRPIYMPRP	-0.11
RRIRQRPPRLPRPRPRPYYNPRP	-0.392
RRIRNRPPRLPRPRPRPGKRPRP	0.00355
RRIRNRPPRLPRPRPRPSFLPRP	-0.473
RRIRYRPPRLPRPRPRPHMVPRP	-0.126
RRIRARPPRLPRPRPRPTSHPRP	-0.016
RRIRGRPPRLPRPRPRPALTPRP	0.874

Sequence	shrunken log2 fold change
RRIRLRPPRLPRPRPRPGYEPRP	-0.11
RRIRWRPPRLPRPRPRPKKHPRP	0.293
RRIRYRPPRLPRPRPRPHMCPRP	-0.0704
RRIRARPPRLPRPRPRPDSDPRP	-0.0357
RRIRDRPPRLPRPRPRPNYNPRP	-0.865
RRIRIRPPRLPRPRPRPAHQPRP	-0.0564
RRIRERPPRLPRPRPRPRQPPRP	0.273
RRIRRRPPRLPRPRPRPWGMPRP	0.137
RRIRCRPPRLPRPRPRPARNPRP	-0.182
RRIRCRPPRLPRPRPRPYMSPRP	-0.366
RRIRGRPPRLPRPRPRPGHFPRP	-0.0383
RRIRVRPPRLPRPRPRPDACPRP	-0.11
RRIRCRPPRLPRPRPRPFICPRP	-0.57
RRIRKRPPRLPRPRPRPGLWPRP	0.66
RRIRSRPPRLPRPRPRPSYVPRP	-0.735
RRIRMRPPRLPRPRPRPNARPRP	0.323
RRIRFRPPRLPRPRPRPFVAPRP	-0.0081
RRIRIRPPRLPRPRPRPKNDPRP	-0.867
RRIRGRPPRLPRPRPRPWMTPRP	0.034
RRIRKRPPRLPRPRPRPTAMPRP	0.358
RRIRARPPRLPRPRPRPHDSPRP	0.037
RRIRFRPPRLPRPRPRPAKVPRP	0.333
RRIRKRPPRLPRPRPRPLNSPRP	0.00355
RRIRIRPPRLPRPRPRPQGCPRP	-0.00156
RRIRLRPPRLPRPRPRPGNSPRP	-0.0133

Sequence	shrunken log2 fold change
RRIRNRPPRLPRPRPRPAVKPRP	-0.229
RRIRSRPPRLPRPRPRPQIHPRP	-0.341
RRIRYRPPRLPRPRPRPPHGPRP	-0.0619
RRIRSRPPRLPRPRPRPTFYPRP	-0.231
RRIRLRPPRLPRPRPRPVTDPRP	-0.325
RRIRDRPPRLPRPRPRPTARPRP	0.546
RRIRDRPPRLPRPRPRPLTWPRP	0.24
RRIRYRPPRLPRPRPRPHLKPRP	-0.452
RRIRPRPPRLPRPRPRPMFCPRP	-0.332
RRIRKRPPRLPRPRPRPLNAPRP	0.731
RRIRVRPPRLPRPRPRPTIDPRP	-0.0691
RRIRKRPPRLPRPRPRPLDRPRP	-0.0461
RRIRQRPPRLPRPRPRPWACPRP	-0.0783
RRIRPRPPRLPRPRPRPLLIPRP	-0.758
RRIRMRPPRLPRPRPRPCMGPRP	-0.28
RRIRSRPPRLPRPRPRPSCWPRP	0.306
RRIRERPPRLPRPRPRPWWIPRP	-0.021
RRIRRRPPRLPRPRPRPHHQPRP	-0.086
RRIRNRPPRLPRPRPRPICLPRP	0.00214
RRIRDRPPRLPRPRPRPGFWPRP	0.493
RRIRLRPPRLPRPRPRPQAGPRP	-0.0299
RRIRHRPPRLPRPRPRPNVTPRP	-0.0118
RRIRMRPPRLPRPRPRPGSPPRP	0.136
RRIRCRPPRLPRPRPRPGLVPRP	0.0569
RRIRRRPPRLPRPRPRPVAHPRP	0.605

Sequence	shrunken log2 fold change
RRIRFRPPRLPRPRPRPPIRPRP	-0.0123
RRIRFRPPRLPRPRPRPLNNPRP	-0.767
RRIRNRPPRLPRPRPRPWICPRP	-0.192
RRIRPRPPRLPRPRPRPTWNPRP	0.00306
RRIRPRPPRLPRPRPRPEIWPRP	0.374
RRIRARPPRLPRPRPRPAVCPRP	0.442
RRIRRRPPRLPRPRPRPRPHPRP	1.6
RRIRCRPPRLPRPRPRPCLVPRP	-0.463
RRIRKRPPRLPRPRPRPWWVPRP	0.404
RRIRRRPPRLPRPRPRPDSQPRP	0.157
RRIRSRPPRLPRPRPRPEMHPRP	0.0756
RRIRSRPPRLPRPRPRPLMWPRP	0.169
RRIRCRPPRLPRPRPRPRPGPRP	0.733
RRIRARPPRLPRPRPRPVTPPRP	0.479
RRIRPRPPRLPRPRPRPGAVPRP	0.379
RRIRCRPPRLPRPRPRPPQWPRP	0.446
RRIRMRPPRLPRPRPRPWIHPRP	-0.0313
RRIRWRPPRLPRPRPRPTMVPRP	-0.299
RRIRPRPPRLPRPRPRPMCGPRP	-0.252
RRIRMRPPRLPRPRPRPPRPPRP	1.75
RRIRWRPPRLPRPRPRPMFLPRP	-0.182
RRIRRRPPRLPRPRPRPLDFPRP	0.184
RRIRGRPPRLPRPRPRPCWEPRP	-0.000921
RRIRERPPRLPRPRPRPRYVPRP	-0.0655
RRIRARPPRLPRPRPRPWEQPRP	0.248

Sequence	shrunken log2 fold change
RRIRWRPPRLPRPRPRPKNCPRP	-0.122
RRIRPRPPRLPRPRPRPWFWPRP	0.281
RRIRCRPPRLPRPRPRPAINPRP	-0.606
RRIRWRPPRLPRPRPRPKQGPRP	0.125
RRIRNRPPRLPRPRPRPFWWPRP	-0.0225
RRIRSRPPRLPRPRPRPVNWPRP	0.142
RRIRLRPPRLPRPRPRPQAKPRP	-0.0308
RRIRERPPRLPRPRPRPWTLPRP	-0.407
RRIRQRPPRLPRPRPRPRETPRP	0.248
RRIRNRPPRLPRPRPRPNQNPRP	0.337
RRIRERPPRLPRPRPRPAMPPRP	-0.0115
RRIRERPPRLPRPRPRPMYLPRP	-1.99
RRIRVRPPRLPRPRPRPVVTPRP	0.0368
RRIRTRPPRLPRPRPRPCYFPRP	-0.616
RRIRGRPPRLPRPRPRPDYAPRP	-0.0775
RRIRFRPPRLPRPRPRPVWIPRP	-0.0471
RRIRQRPPRLPRPRPRPYDQPRP	0.0352
RRIRSRPPRLPRPRPRPVQIPRP	0.111
RRIRTRPPRLPRPRPRPFEMPRP	-0.376
RRIRGRPPRLPRPRPRPESQPRP	1.57
RRIRIRPPRLPRPRPRPWCKPRP	-0.284
RRIRARPPRLPRPRPRPTRPPRP	0.764
RRIRGRPPRLPRPRPRPLPKPRP	0.943
RRIRLRPPRLPRPRPRPFCVPRP	-0.265
RRIRMRPPRLPRPRPRPTLYPRP	0.16
